Measurements as given in CN112125972A (SINOCELLTECH LTD, dated 2020).

Assays:
Test in all cases: indirect ELISA, VLP coated at 2 μg/mL, antibody at 10 ng/mL
HPV58 VLP = target: T1, HPV58 VLP (Human papillomavirus type 58, UniProt P26535 27-524)
T1 construct: also called HPV58完整VLP蛋白
T1 sequence: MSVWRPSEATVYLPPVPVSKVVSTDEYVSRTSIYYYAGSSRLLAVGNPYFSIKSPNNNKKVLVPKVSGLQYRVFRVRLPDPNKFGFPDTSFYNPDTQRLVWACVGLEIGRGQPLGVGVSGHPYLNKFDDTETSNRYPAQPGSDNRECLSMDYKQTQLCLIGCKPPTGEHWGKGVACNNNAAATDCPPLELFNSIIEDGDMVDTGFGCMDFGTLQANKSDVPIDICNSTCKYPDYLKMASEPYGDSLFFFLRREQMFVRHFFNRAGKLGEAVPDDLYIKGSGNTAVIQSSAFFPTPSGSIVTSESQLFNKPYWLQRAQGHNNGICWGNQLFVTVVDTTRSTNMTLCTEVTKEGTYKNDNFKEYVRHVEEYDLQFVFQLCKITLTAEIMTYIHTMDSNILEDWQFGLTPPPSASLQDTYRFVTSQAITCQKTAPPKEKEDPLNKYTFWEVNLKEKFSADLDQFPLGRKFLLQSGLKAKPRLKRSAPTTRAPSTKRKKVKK

HPV6 VLP = target: T2, HPV6 VLP (Human papillomavirus type 6, UniProt P69899 1-500)
T2 construct: also called HPV6完整VLP蛋白
T2 sequence: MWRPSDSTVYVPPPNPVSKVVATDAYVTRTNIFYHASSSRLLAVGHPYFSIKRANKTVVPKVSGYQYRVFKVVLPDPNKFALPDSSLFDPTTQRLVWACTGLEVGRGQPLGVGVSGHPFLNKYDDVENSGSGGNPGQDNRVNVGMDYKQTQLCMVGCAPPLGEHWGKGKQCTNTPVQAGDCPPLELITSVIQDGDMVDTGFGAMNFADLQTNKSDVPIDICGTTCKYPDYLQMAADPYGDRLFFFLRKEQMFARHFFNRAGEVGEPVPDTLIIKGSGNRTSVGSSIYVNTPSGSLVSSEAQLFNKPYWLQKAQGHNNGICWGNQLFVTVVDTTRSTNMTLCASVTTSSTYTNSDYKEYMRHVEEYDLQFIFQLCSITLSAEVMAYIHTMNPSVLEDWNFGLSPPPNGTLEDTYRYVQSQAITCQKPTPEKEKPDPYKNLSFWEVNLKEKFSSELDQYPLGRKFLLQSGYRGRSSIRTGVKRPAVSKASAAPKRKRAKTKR

HPV11 VLP = target: T3, HPV11 VLP (Human papillomavirus type 11, UniProt P04012 1-501)
T3 construct: also called HPV11完整VLP蛋白
T3 sequence: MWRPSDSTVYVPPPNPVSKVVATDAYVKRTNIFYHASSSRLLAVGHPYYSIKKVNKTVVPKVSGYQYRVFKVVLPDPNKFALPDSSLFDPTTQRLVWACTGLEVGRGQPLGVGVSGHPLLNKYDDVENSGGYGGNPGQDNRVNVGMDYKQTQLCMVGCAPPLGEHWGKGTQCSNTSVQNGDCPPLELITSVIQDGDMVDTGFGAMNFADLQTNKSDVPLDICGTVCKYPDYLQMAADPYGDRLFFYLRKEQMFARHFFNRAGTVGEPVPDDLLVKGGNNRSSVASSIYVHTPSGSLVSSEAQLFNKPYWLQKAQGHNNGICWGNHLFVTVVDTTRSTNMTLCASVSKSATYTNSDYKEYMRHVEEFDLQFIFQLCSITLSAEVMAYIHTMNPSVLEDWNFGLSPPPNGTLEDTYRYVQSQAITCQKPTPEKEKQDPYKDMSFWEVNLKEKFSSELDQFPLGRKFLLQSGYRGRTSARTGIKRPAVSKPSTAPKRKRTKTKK

HPV35 VLP = target: T4, HPV35 VLP (Human papillomavirus type 35, UniProt P27232 1-502)
T4 construct: also called HPV35完整VLP蛋白
T4 sequence: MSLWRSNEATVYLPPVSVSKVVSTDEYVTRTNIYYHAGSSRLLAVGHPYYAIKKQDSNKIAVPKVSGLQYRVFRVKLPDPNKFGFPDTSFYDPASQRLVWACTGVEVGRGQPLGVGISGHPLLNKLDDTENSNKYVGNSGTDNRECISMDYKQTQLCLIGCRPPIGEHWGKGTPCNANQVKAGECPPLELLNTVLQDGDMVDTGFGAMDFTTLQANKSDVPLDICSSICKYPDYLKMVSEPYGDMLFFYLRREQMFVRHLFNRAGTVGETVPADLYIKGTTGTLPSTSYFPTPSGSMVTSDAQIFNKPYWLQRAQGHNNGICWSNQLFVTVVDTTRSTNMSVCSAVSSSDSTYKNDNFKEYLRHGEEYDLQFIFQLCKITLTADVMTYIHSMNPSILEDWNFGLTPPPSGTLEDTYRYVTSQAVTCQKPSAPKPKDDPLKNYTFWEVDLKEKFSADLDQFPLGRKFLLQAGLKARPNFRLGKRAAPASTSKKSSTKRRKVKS

HPV39 VLP = target: T5, HPV39 VLP (Human papillomavirus type 39, UniProt P24838 1-505)
T5 construct: also called HPV39完整VLP蛋白
T5 sequence: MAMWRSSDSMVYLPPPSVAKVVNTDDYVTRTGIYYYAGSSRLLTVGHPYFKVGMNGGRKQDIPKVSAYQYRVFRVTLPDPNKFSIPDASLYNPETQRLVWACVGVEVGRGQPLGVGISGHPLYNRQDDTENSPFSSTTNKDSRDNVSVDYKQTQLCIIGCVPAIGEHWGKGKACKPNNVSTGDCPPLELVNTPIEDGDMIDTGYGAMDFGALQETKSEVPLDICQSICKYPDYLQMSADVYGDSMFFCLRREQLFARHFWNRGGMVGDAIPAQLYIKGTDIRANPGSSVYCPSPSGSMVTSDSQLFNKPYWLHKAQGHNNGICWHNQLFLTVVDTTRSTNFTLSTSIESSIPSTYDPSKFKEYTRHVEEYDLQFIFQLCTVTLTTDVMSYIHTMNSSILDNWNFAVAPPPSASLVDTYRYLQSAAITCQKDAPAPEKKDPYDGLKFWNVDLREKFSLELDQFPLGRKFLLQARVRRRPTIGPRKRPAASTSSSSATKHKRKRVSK

B1: HPV 16 R001 (antibody, V domains shown)
VH: QSVKESEGRLVTPGTPLTLTCTASGFTMSRYHMTWVRQAPGKGLEWIGIIYARNSDTYYANWAKGRFTISKTSTTVDLKITSPTIEDTATYFCARVDSDSSGAFDRLDLWGQGTLVTVSS
VL: DPMLTQTAASVEVAVGGTVTIKCQASQSIGGYLSWYQQKPGQRPKLLIYRASTLASGVPSRFKGSGSGTEYTLTFSGVECADAAAYYCQQGYTSSDINNAFGGGTEVVVK
notes: An HRP-labelled form served as detection antibody in the sandwich ELISA; also called HPV16.001; 单克隆抗体HPV 16 R001
- OD450-blank (HPV58 VLP): 0.003 OD450
- OD450-blank (HPV6 VLP): 0.004 OD450
- OD450-blank (HPV11 VLP): 0.001 OD450
- OD450-blank (HPV35 VLP): 0.001 OD450
- OD450-blank (HPV39 VLP): 0.004 OD450
